From PMC10318465, “A heme pocket aromatic quadrupole modulates gas binding to cytochrome c′-β: Implications for NO sensors” (The Journal of Biological Chemistry, 2023)
Substitutions are numbered along the chain they refer to. Names may count otherwise.

B1: V68T: V68T variant of pig myoglobin (Mb) (protein, UniProt P02189 2-154, looked up, variant V68T)
Myoglobin: GLSDGEWQLVLNVWGKVEADVAGHGQEVLIRLFKGHPETLEKFDKFKHLKSEDEMKASEDLKKHGNTTLTALGGILKKKGHHEAELTPLAQSHATKHKIPVKYLEFISEAIIQVLQSKHPGDFGADAQGAMSKALELFRNDMAAKYKELGFQG
B2: H64V, V68T: H64V/V68T Mb double variant (protein, UniProt P02189 2-154, looked up, variant H64V V68T)
Myoglobin: B1 Myoglobin with H64V
B3: Mb pig (wt): wild-type pig myoglobin (protein, UniProt P02189 2-154, looked up)
Myoglobin: B1 Myoglobin with T68V

How the values were obtained:
[1] = target: His123 (UniProt position 143, GCFGCHAAQKE); test: UV-vis; conditions: 1x MHTCP cocktail buffer (5x stock: 500 mM CAPS, 250 mM Mes, 250 mM Hepes, 250 mM Pipes, 250 mM TAPS), sodium dithionite, excess PROLI NONOate, Ferrous heme-nitrosyl Fe(II)NO complex, 5 uM protein, equilibrium between 5cNO (His 123 dissociated) and 6cNO (His 123 bound)
[2] = parameters: method as in earlier work; conditions: 6cCO, ref AxCP-α [9],[56], L16A [9],[10], Mb pig wt and V68T [57], H64V,V68T [25], sGC [17],[58], Ns H-NOX [16], cited from earlier work; for Kd: read-out: Kd(CO)
[3] = 6cNO; ref AxCP-α [9],[56]; L16A [9],[10]; Mb pig wt and V68T [57]; sGC [17],[58]; Ns H-NOX [16]; cited from earlier work
[4] = Literature kinetic parameters of six-coordinate Fe(II)CO complexes of selected heme proteins; format: binding; conditions: from literature koff(CO) values of Table 4

| Molecule | pKa [1] | koff(CO) [2] [s⁻¹] | kon(CO) [2] [M⁻¹ s⁻¹] | Kd [2] [nM] | kon(NO) [3] [M⁻¹ s⁻¹] | increase of koff(CO) relative to wt Mb [4] [fold] |
| --- | --- | --- | --- | --- | --- | --- |
| Cytochrome c'-beta (McCP-beta) (Methylococcus capsulatus (Bath)) | 7.17 ± 0.03 |  |  |  |  |  |
| B1 |  | 0.079 | 610000 | 130 | 4.9e+06 | ~4 |
| B2 |  | 0.063 | 2.7e+07 | 2.3 |  | ~3 |
| B3 |  | 0.019 | 780000 | 24 | 1.7e+07 |  |
